In the supplement of paper PMC9112550, “Optimization of the antimicrobial peptide Bac7 by deep mutational scanning” (BMC Biology, 2022):

Test system: Escherichia coli TOP10
Test: shrunken log2 fold change of peptide-encoding DNA abundance (4.5 h post-induction vs induction); higher = less antimicrobial activity (less host growth inhibition)
Details: time post-induction: 4.5 h; library: site-saturation at positions 5, 18, 19, 20
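Note: peptides expressed intracellularly from a pBAD plasmid library in pooled LB shake-flask culture, induced with 0.3% L-arabinose, DNA abundance read by NGS, three biological replicates, DESeq2 with apeglm shrinkage.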

Sequence | shrunken log2 fold change
RRIRCRPPRLPRPRPRPDGSPRP | -0.133
RRIRNRPPRLPRPRPRPIPVPRP | 1.22
RRIRHRPPRLPRPRPRPFMIPRP | -0.341
RRIRLRPPRLPRPRPRPDSQPRP | -0.117
RRIRTRPPRLPRPRPRPFELPRP | -0.0363
RRIRIRPPRLPRPRPRPVQVPRP | -0.0757
RRIRARPPRLPRPRPRPFCCPRP | 0.206
RRIRDRPPRLPRPRPRPSKWPRP | -0.196
RRIRDRPPRLPRPRPRPSNQPRP | -0.315
RRIRCRPPRLPRPRPRPIIGPRP | -0.304
RRIRARPPRLPRPRPRPLYEPRP | 0.000796
RRIRDRPPRLPRPRPRPASDPRP | 0.0114
RRIRTRPPRLPRPRPRPDTQPRP | 0.0514
RRIRRRPPRLPRPRPRPLETPRP | 1.01
RRIRRRPPRLPRPRPRPWSTPRP | -0.0543
RRIRPRPPRLPRPRPRPWPLPRP | 0.185
RRIRMRPPRLPRPRPRPAGCPRP | 0.842
RRIRFRPPRLPRPRPRPYYTPRP | -0.369
RRIRNRPPRLPRPRPRPNLKPRP | -0.33
RRIRVRPPRLPRPRPRPMSVPRP | 0.0581
RRIRTRPPRLPRPRPRPQPHPRP | -0.0402
RRIRWRPPRLPRPRPRPLVAPRP | 0.815
RRIRGRPPRLPRPRPRPMPFPRP | 0.118
RRIRGRPPRLPRPRPRPAVFPRP | 0.878
RRIRHRPPRLPRPRPRPRFMPRP | 0.0821

Sequence | shrunken log2 fold change
RRIRVRPPRLPRPRPRPICRPRP | 0.177
RRIRTRPPRLPRPRPRPKRWPRP | 0.723
RRIRTRPPRLPRPRPRPYQAPRP | -0.206
RRIRWRPPRLPRPRPRPRVDPRP | 0.39
RRIRVRPPRLPRPRPRPNRQPRP | -0.326
RRIRKRPPRLPRPRPRPTLFPRP | 0.111
RRIRGRPPRLPRPRPRPIHRPRP | 0.0525
RRIRQRPPRLPRPRPRPGDCPRP | -0.0893
RRIRTRPPRLPRPRPRPRPFPRP | 0.114
RRIRTRPPRLPRPRPRPHFPPRP | -0.199
RRIRMRPPRLPRPRPRPHQVPRP | 0.423
RRIRHRPPRLPRPRPRPLEWPRP | -0.0135
RRIRKRPPRLPRPRPRPNKEPRP | -0.0272
RRIRQRPPRLPRPRPRPMIEPRP | -0.118
RRIRRRPPRLPRPRPRPYHCPRP | -0.37
RRIRFRPPRLPRPRPRPYYYPRP | -0.392
RRIRIRPPRLPRPRPRPEGSPRP | 0.0664
RRIRVRPPRLPRPRPRPKKMPRP | -0.0803
RRIRLRPPRLPRPRPRPMNEPRP | -0.00493
RRIRGRPPRLPRPRPRPWWMPRP | 0.322
RRIRCRPPRLPRPRPRPDVPPRP | -0.0242
RRIRTRPPRLPRPRPRPPRAPRP | 0.786
RRIRQRPPRLPRPRPRPCTEPRP | 0.0363
RRIRLRPPRLPRPRPRPAKKPRP | 0.0858
RRIRPRPPRLPRPRPRPKNTPRP | -0.218

Sequence | shrunken log2 fold change
RRIRYRPPRLPRPRPRPVAAPRP | 0.149
RRIRMRPPRLPRPRPRPFYKPRP | -0.266
RRIRNRPPRLPRPRPRPAHQPRP | -0.108
RRIRWRPPRLPRPRPRPKCLPRP | -0.197
RRIRPRPPRLPRPRPRPCKEPRP | -0.0274
RRIRIRPPRLPRPRPRPCSWPRP | -0.31
RRIRYRPPRLPRPRPRPWNHPRP | -0.00776
RRIRRRPPRLPRPRPRPKVAPRP | 0.0861
RRIRYRPPRLPRPRPRPGENPRP | 0.00408
RRIRRRPPRLPRPRPRPWGQPRP | 0.0104
RRIRERPPRLPRPRPRPDKFPRP | -0.466
RRIRMRPPRLPRPRPRPKNKPRP | 0.408
RRIRIRPPRLPRPRPRPTNDPRP | -0.246
RRIRGRPPRLPRPRPRPAVLPRP | 0.394
RRIRSRPPRLPRPRPRPQPWPRP | 0.366
RRIRVRPPRLPRPRPRPYMPPRP | -0.78
RRIRARPPRLPRPRPRPQCTPRP | -0.0222
RRIRHRPPRLPRPRPRPQPNPRP | -0.168
RRIRQRPPRLPRPRPRPCNDPRP | -0.374
RRIRRRPPRLPRPRPRPRYIPRP | -0.12
RRIRVRPPRLPRPRPRPCVLPRP | -0.44
RRIRPRPPRLPRPRPRPANMPRP | -0.219
RRIRNRPPRLPRPRPRPCQTPRP | -0.0964
RRIRCRPPRLPRPRPRPMDLPRP | -0.0384
RRIRWRPPRLPRPRPRPKKIPRP | 0.0449
